This note sets out measurements from publication doi:10.1101/2023.08.16.553618, “Structure of C. elegans TMC-2 complex suggests roles of lipid-mediated subunit contacts in mechanosensory transduction” (bioRxiv, 2023).

This data set concerns the molecule itself. In words: cryo-EM structure; single particle cryo-EM of the native TMC-2 complex isolated from worms in GDN with 1 mM CaCl2; cis-dimeric particles; 2 nm carbon grids.

B1: C. elegans TMC-2 (transmembrane channel-like protein 2), native, with C-terminal mVenus-3C-3xFLAG (natural protein, UniProt Q11069 1-1203, looked up)
chain: MPKSGAHQPLVRHDTDDGGETGQSVKSLADVSEEEIDSRMSRRSSVIADLLSLFRRSSSVLVRPHTRLGNPNFDDDDDEFDEEDDKEASKDRILKKIQQKKEIIQKLRGQPWYMKRKRRTLKVAQKHLQQQEAKVSKARLYKAEAGRRLTQASRWLDNLKIYLIPWEAKIRKIESHFGSVVSSYFTFHRWVLGVNITITFIMCMFVVIPEWLADSRTQFGDDRYNKTKAIKVMPPAVRARADELSTVWDFGGYFQYSLLFYGFYSKETFFGETIKYRVPVAYFFCNIFILGFSLFIILRKMAANNRRGTLSSGKTQQYLFNWKAFTGWDYTIGNPETAGNVYMANVIKFREAINDDKQKPSDKHPWIRFVARVLTNLFICAMYVFSIWAIMQCGTLKGEHFFAQNATAITISLITLVFPNIFDLLGKIEKLHPRNALRFQLGRVLVLYILNYYTLIYSLMLQLEHLQKEKNASDNPISALGHPGDAIGRTIRETVLPRYPVDNNPHTYYSYAPVTTTPIPATSSWTTVLPDFGPFGVYNPKASVTKDDTVFSSPVVETHMFGPNSDWNETTVNAASPTGATTRASLRMSQGGLCWETIIGQEITKLVTMDLYMTVASIFLIDFLRGLACRYLNLYWPWDLERTFPEYGEFKVAENVLHLVNNQGMIWLGLFFVPLLPMLNNIKLIILMYIRGWAAMTCNVPASQIFRASRSSNFFFALLILFLFLCTLPVGFVIASKTPSKSCGPFGNQSFFYSVITDVLHENLDKTLVNGIKYSLSPGIIIPVLVLLSLVIYFLIAMVTGLSQANQDLSFQLMVERTEEKKKIFELAGGKKKKSKDNTFGKQKPKQLLPPPTKGVSSDDDSQHNRSTAKSVSGRQFVPSLGSVSEVDHSTGEEQSSDSESTTSSLPPKLSLRQRFLVCIGWADPNKYGRHDDIEMEEGGGRLRELSTGSETDSDDEDSEKSNRDMSYRTAIQSFDQNSQSASASSSKSTTTAPSNSEMRIEITENPLHTYITPLRIEKKSSASSSSSSHQPSSSIEKQAARRLLQPISTTHNIRYGVATVENSSQDPTRPPSTDDSLGDPALHEPLWANLNPHSSYTSAMMSPIMNEVMSNDETTDDEKGRLIPDRPPIPHSPRELKRLKREKDQQSESGSKPSTPRPPRFRISMSPPRKPPSEKNDSDSSNRKYEMRVEKSPKKPKKSDND
modifications: N-glycans at N225 and N748 (density features)
notes: TMC-2, C. elegans, Wormbase B0416.1a; tag inserted prior to the stop codon of the endogenous gene; A 3C (PreScission) site lies between mVenus and 3xFLAG; The complex was captured by the 3xFLAG tag and eluted by 3C cleavage, so the sample for SEC, mass spectrometry and cryo-EM has mVenus but no 3xFLAG; Two copies stand in the cis-dimeric complex; Not modelled in 8TKP: M1-A88, A472-T582, …
The stoichiometry N is a count of units in the complex or per binding partner. In the case of B1, the “stoichiometry N” value was found to be 2.
